This passage reports protein stability index results from the supplement of paper PMC9732359.

± gives the uncertainty stated by the source.

A short description of this data set: protein stability index of a GFP-peptide fusion (yeast GPS) (PSI 1-4); higher = more stable; sorted into four equal gates, so the index is relative within each strain. In short, it runs like this:
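Tiled 17-residue yeast protein peptides were fused downstream of GFP in a plasmid that also expresses Cherry, and the pooled library was carried in yeast. Mid-log cultures in leucine-free medium were sorted into four equal gates by GFP/Cherry fluorescence ratio, and plasmids from each gate were PCR-amplified and Illumina-sequenced, with reads assigned to strains by barcodes. The protein stability index for each peptide was each gate's read frequency times its gate number, summed.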

In the case of KEQADIYAKQQEQLKQM [ARP7], the protein stability index reads like this: (doa10∆) 1.75 ± 0.065; (pdr5∆) 2.25 ± 0.086; (san1∆) 1.78 ± 0.14; (ubr1∆) 2.88 ± 0.066.

With KERKLRENIAMLKRFFP [SMC1], the protein stability index by setting is: (doa10∆) 2.38 ± 0.18; (pdr5∆) 2.52 ± 0.14; (san1∆) 2.65 ± 0.23; (ubr1∆) 2.59 ± 0.16.

For KERLVRDKKEKKQAQKQ [SMB1], the protein stability index by setting is: (doa10∆) 3.25 ± 0.097; (pdr5∆) 3.21 ± 0.086; (san1∆) 2.82 ± 0.14; (ubr1∆) 3.3 ± 0.086.

With KERNSLKKLKAMNDACY [BRR2], the protein stability index is, setting by setting: (doa10∆) 3.18 ± 0.086; (pdr5∆) 3.16 ± 0.059; (san1∆) 2.98 ± 0.051; (ubr1∆) 3.05 ± 0.06.

As for KERTKSLEHELKRSTEL [YIL149C/MLP2], the protein stability index runs as follows: (doa10∆) 3.04 ± 0.15; (pdr5∆) 3.36 ± 0.28; (san1∆) 2.47 ± 0.12; (ubr1∆) 3.12 ± 0.094.

Take KESDLLEETRTTIGDTT [BRN1]: the protein stability index was determined as 2.47 ± 0.051 (doa10∆), 3.18 ± 0.064 (pdr5∆), 2.99 ± 0.053 (san1∆) and 3.19 ± 0.055 (ubr1∆).

On to KETTIEKLSSEIENLDK [YIL149C/MLP2], for which the protein stability index by setting is: (doa10∆) 2.94 ± 0.068; (pdr5∆) 2.89 ± 0.071; (san1∆) 2.9 ± 0.063; (ubr1∆) 3.15 ± 0.056.

In the case of KEYELLTLQEDYIKDEQ [RPT3], the protein stability index runs as follows: (doa10∆) 3.53 ± 0.12; (pdr5∆) 3.13 ± 0.11; (san1∆) 3.19 ± 0.083; (ubr1∆) 3.25 ± 0.065.

For the sequence KEYENHSGELMRQQSKE [SMC1], the protein stability index was 2.83 ± 0.1 (doa10∆), 2.85 ± 0.077 (pdr5∆), 2.9 ± 0.05 (san1∆) and 3 ± 0.082 (ubr1∆).

Take KFANQLHDEYLVSMRYP [RPN3]: the protein stability index by setting is: (doa10∆) 2.35 ± 0.098; (pdr5∆) 2.9 ± 0.07; (san1∆) 2.43 ± 0.081; (ubr1∆) 2.76 ± 0.074.

Take KFGYILCVLDYDNIDIQ [RPB7]: the protein stability index runs as follows: (doa10∆) 2.02 ± 0.1; (pdr5∆) 2.08 ± 0.09; (san1∆) 3.13 ± 0.11; (ubr1∆) 2.04 ± 0.13.

As for KFMELERKTLERQQENL [SWI3], the protein stability index reads like this: (doa10∆) 2.76 ± 0.17; (pdr5∆) 3.23 ± 0.1; (san1∆) 3.06 ± 0.09; (ubr1∆) 3.12 ± 0.071.

Consider KFNKSKAKFTSLAVRSL [YCS4], for which the protein stability index runs as follows: (doa10∆) 2.09 ± 0.065; (pdr5∆) 2.01 ± 0.056; (san1∆) 1.96 ± 0.067; (ubr1∆) 1.8 ± 0.039.

In the case of KFPETSYPILNESSTFL [SIN4], the protein stability index runs as follows: (doa10∆) 2.47 ± 0.04; (pdr5∆) 2.71 ± 0.034; (san1∆) 2.58 ± 0.042; (ubr1∆) 2.64 ± 0.032.

KFSDLKFILQILQILNL [YML103C/NUP188]: the protein stability index was found to be 3.05 ± 0.15 (doa10∆), 2.12 ± 0.29 (pdr5∆) and 3.48 ± 0.13 (san1∆).

For KGDRALLVKLSKRLPLR [BRR2], the protein stability index was 2.47 ± 0.047 (doa10∆), 2.57 ± 0.042 (pdr5∆), 2.34 ± 0.094 (san1∆) and 2.57 ± 0.042 (ubr1∆).

The sequence KGEQIAIFPYQDPIFGS [ECM29] returned a protein stability index (doa10∆) of 2.09 ± 0.048, a protein stability index (pdr5∆) of 2.28 ± 0.053, a protein stability index (san1∆) of 2.37 ± 0.067 and a protein stability index (ubr1∆) of 2.23 ± 0.039.

As for KGEVVLVNIRTQTSKEQ [ITC1], the protein stability index reads like this: (doa10∆) 2.4 ± 0.075; (pdr5∆) 2.5 ± 0.15; (san1∆) 2.58 ± 0.1; (ubr1∆) 2.56 ± 0.095.

Consider KGEVYTIPLGGSVHKLP [PRE3], for which the protein stability index was 2.97 ± 0.065 (doa10∆), 2.95 ± 0.082 (pdr5∆), 2.84 ± 0.088 (san1∆) and 3.04 ± 0.044 (ubr1∆).

KGNFRTKPFENVEKYPT [SNU114]: the protein stability index worked out at 3 ± 0.24 (pdr5∆) and 3.16 ± 0.25 (san1∆).

Take KGNLLEGKKVMAPYLPG [RPN2]: the protein stability index runs as follows: (doa10∆) 2.14 ± 0.061; (pdr5∆) 1.95 ± 0.042; (san1∆) 2.03 ± 0.068; (ubr1∆) 2.14 ± 0.045.

Consider KGSRFISTLQVKLYGRE [RPB2], for which the protein stability index is 2.06 ± 0.065 (doa10∆), 2.3 ± 0.057 (pdr5∆), 2.58 ± 0.089 (san1∆) and 2.37 ± 0.056 (ubr1∆).
